# Data: patent US11697815B2, “Regulation of gene expression through aptamer-modulated polyadenylation” (MeiraGTx UK II Limited, priority 2016, dated 2023)
# Substitutions are numbered along the chain they refer to.
# B1: wtU1_Gua_HBGPA: wild type U1 site with xpt-guanine aptamer in pFLuc_HBGPA (human beta globin polyA sequence) (nucleic acid)
# DNA: TCATAAAGGCCAAGAAGGGCGGAAAGATCGCCGTGTAAGGATCCAAGCTTATCGATACCGTCGACCTCGAGGTAATGTATAATCGCGTGGATATGGCACGCAAGTTTCTACCGGGCACCGTAAATGTCCGACTACATTACGGCCCAGATCTAATTCACCCCACCAGTGCAGGCTGCCTATCAGAAAGTGGTGGCTGGTGTGGCTAATGCCCTGGCCCACAAGTATCACTAAGCTCGCTTTCTTGCTGTCCAATTTCTATTAAAGGTTCCTTTGTTCCCTAAGTCCAACTACTAAACTGGGGGATATTATGAAGGGCCTTGAGCATCTGGATTCTGCCTAATAAAAAACATTTATTTTCATTGCAATGATGTATTT
# modifications: in pFLuc_HBGPA; wtU1_Gua_HBGPA
# B2: mutU1_Gua_HBGPA: mutant U1 site with xpt-guanine aptamer in pFLuc_HBGPA (nucleic acid)
# DNA: B1 DNA with G71T, T73G, G77C
# modifications: in pFLuc_HBGPA; mutU1_Gua_HBGPA
# B3: U1_Gua_3: U1 site linked with xpt-guanine aptamer, 74 nt upstream of SV40 early poly(A) in pFLuc (nucleic acid)
# DNA: TCATAAAGGCCAAGAAGGGCGGAAAGATCGCCGTGTAAGCCATACCACATTTGTAGAGGTTTTACTTGCTTTAAAAAACCTCCCACACCTCCCCCTGAACCTGAAACATAAAATGAATGCAATTGTAAGGTAATGTATAATCGCGTGGATATGGCACGCAAGTTTCTACCGGGCACCGTAAATGTCCGACTACATTACTGTTGTTAACTTGTTTATTGCAGCTTATAATGGTTACAAATAAAGCAATAGCATCACAAATTTCACAAATAAAGCATTTTTTTCACTGCATTCTAGTTGTGGTTTGTCCAAACTCATCAATGTATCTTAA
# modifications: in pFLuc; U1_Gua_3 wt in pFLuc
# notes: U1 site linked with xpt-guanine aptamer, 74 nt upstream of SV40 early poly(A) in pFLuc
# B4: U1_Gua_2: U1 site linked with xpt-guanine aptamer, 110 nt upstream of SV40 early poly(A) in pFLuc (nucleic acid)
# DNA: TCATAAAGGCCAAGAAGGGCGGAAAGATCGCCGTGTAAGCCATACCACATTTGTAGAGGTTTTACTTGCTTTAAAAAACCTCCCACACCTAAGGTAATGTATAATCGCGTGGATATGGCACGCAAGTTTCTACCGGGCACCGTAAATGTCCGACTACATTACCCCCCTGAACCTGAAACATAAAATGAATGCAATTGTTGTTGTTAACTTGTTTATTGCAGCTTATAATGGTTACAAATAAAGCAATAGCATCACAAATTTCACAAATAAAGCATTTTTTTCACTGCATTCTAGTTGTGGTTTGTCCAAACTCATCAATGTATCTTAA
# modifications: in pFLuc; U1_Gua_2 wt in pFLuc
# notes: U1 site linked with xpt-guanine aptamer, 110 nt upstream of SV40 early poly(A) in pFLuc
# B5: 4 copies of U1-theo_8_1: 4 copies of the U1_theo_8_1 sequence in tandem in the 3′ UTR of pRL-SV40 (nucleic acid)
# DNA: TCAAATCGTTCGTTGAGCGAGTTCTCAAAAATGAACAATAATTCTAGAGCGGCCGCTTCGAGCAGACATGATAAGATACATTGATGAGTTTGGACAAACCAAACCCAGGTAAGTGATACCAGCCGAAAGGCCCTTGGCAGCACTTACCTGGACAACTAGAATGCAGTGAAAAAAGAGTTTGGACAAACCAAACCCAGGTAAGTGATACCAGCCGAAAGGCCCTTGGCAGCACTTACCTGGACAACTAGAATGCAGTGAAAAAAATGCGAGTTTGGACAAACCAAACCCAGGTAAGTGATACCAGCCGAAAGGCCCTTGGCAGCACTTACCTGGACAACTAGAATGCAGTGAAAAAAATGCTTTATTTGTGAGAGTTTGGACAAACCAAACCCAGGTAAGTGATACCAGCCGAAAGGCCCTTGGCAGCACTTACCTGGACAACTAGAATGCAGTGAAAAAAATGCTTTATTTGTGAAATTTGTGATGCTATTGCTTTATTTGTAACCATTATAAGCTGCAATAAACAAGTTAACAACAAC
# modifications: in pRL-SV40 3′ UTR; 4xU1_theo_8_1 in pRL-SV40
# B6: U1_theo_8_1: sequential stem mutation of U1_theo_8 in pRL-SV40 (nucleic acid)
# DNA: TCAAATCGTTCGTTGAGCGAGTTCTCAAAAATGAACAATAATTCTAGAGCGGCCGCTTCGAGCAGACATGATAAGATACATTGATGAGTTTGGACAAACCAAACCCAGGTAAGTGATACCAGCCGAAAGGCCCTTGGCAGCACTTACCTGGACAACTAGAATGCAGTGAAAAAAATGCTTTATTTGTGAAATTTGTGATGCTATTGCTTTATTTGTAACCATTATAAGCTGCAATAAACAAGTTAACAACAAC
# modifications: in pRL-SV40; U1_theo_8_1 in pRL-SV40
# B7: U1_Gua_1: DHFR exon 2 5′ splice site U1 site linked with xpt-guanine aptamer, 149 nt upstream of SV40 early poly(A) in pFLuc (nucleic acid)
# DNA: TCATAAAGGCCAAGAAGGGCGGAAAGATCGCCGTGTAAGCCATACCACATTAAGGTAATGTATAATCGCGTGGATATGGCACGCAAGTTTCTACCGGGCACCGTAAATGTCCGACTACATTACTGTAGAGGTTTTACTTGCTTTAAAAAACCTCCCACACCTCCCCCTGAACCTGAAACATAAAATGAATGCAATTGTTGTTGTTAACTTGTTTATTGCAGCTTATAATGGTTACAAATAAAGCAATAGCATCACAAATTTCACAAATAAAGCATTTTTTTCACTGCATTCTAGTTGTGGTTTGTCCAAACTCATCAATGTATCTTAA
# modifications: in pFLuc; U1_Gua_1 wt in pFLuc
# notes: DHFR exon 2 5′ splice site U1 site linked with xpt-guanine aptamer, 149 nt upstream of SV40 early poly(A) in pFLuc
# Legend:
# Type in all cases: cell-based
# [1] = test system: firefly luciferase expression; test: Firefly luciferase assay of HEK 293 cells transfected with U1_Gua riboswitch constructs, with or without guanine; conditions: for fold increase of luciferase activity upon guanine treatment: 500 μM guanine
# Text: Plasmid constructs: The EGFP gene in pEGFP-C1 vector was replaced with firefly luciferase gene coding sequence to generate a pFLuc vector that contains an SV40 early polyadenylation signal sequence. Oligos containing either wild type or mutant U1 binding site from the 5′ splice site of human DHFR exon 2 and xpt-guanine aptamer sequence followed by the complementary sequence of the last 7 nt of the U1 site sequence were synthesized (IDT) and cloned into the pFLuc vector using the Gibson cloning strategy and kit (NEB).
# Transfection and aptamer ligand treatment: HEK 293 cells were transfected as described in Example 1. Four hours after transfection, the media was aspirated, and new media with or without 500 μM guanine was added.
# Firefly luciferase assay of cultured cells: Twenty-four hours after the media change, the plates were removed from the incubator, and equilibrated to RT for several minutes on a lab bench, then aspirated. Glo-lysis buffer (Promega, 100 uL, RT) was added, and the plates allowed to remain at RT for at least 5 minutes. Then, the well contents were mixed by 50 uL trituration, and 20 uL of each sample was mixed with 20 μL of bright-glo reagent (Promega) that had been diluted to 10% in glo-lysis buffer. The 96 wells were spaced on an opaque white 384-well plate. Following a 5 min incubation at RT, luminescence was measured using a Tecan machine with 500 mSec read time. The luciferase activity was expressed as mean relative light unit (RLU)±S.D.
# Plasmid constructs: SV40 early polyadenylation sequence was replaced with human beta globin polyA sequence in pFLuc vector to generate pFLuc_HBGPA. Oligos containing either wild type or mutant U1 binding site from 5′ ss of human DHFR exon 2 and xpt-guanine aptamer sequence followed by the complementary sequence of last 7 nt of U1 site sequence were synthesized (IDT) and cloned into pFLuc_HBGPA vector using Gibson cloning strategy and kit (NEB).
# Transfection and luciferase assay were as described in Example 7.
# [2] = test system: Renilla luciferase expression; test: Renilla luciferase assay of HEK 293 cells transfected with U1_theo riboswitch constructs, with or without theophylline
# [3] = test system: Renilla luciferase expression; test: as above; remark: listed apart in the source
# Experimental: Transfection: 3.5×10^4 HEK 293 cells were plated in a 96-well flat bottom plate the day before transfection. Plasmid DNA (500 ng) was added to a tube or a 96-well U-bottom plate. Separately, TransIT-293 reagent (Mirus; 1.4 μl) was added to 50 μl Opti-mem I media (Life Technologies), and allowed to sit for 5 minutes at room temperature (“RT”). Then, 50 μl of this diluted transfection reagent was added to the DNA, mixed, and incubated at RT for 20 min. Finally, 7 μl of this solution was added to a well of cells in the 96-well plate.
# Renilla luciferase assay of cultured cells: 24 hours after the media change, plates were removed from the incubator, and equilibrated to RT for several minutes on a lab bench, and the media aspirated. Glo-lysis buffer (Promega, 100 μl, RT) was added, and the plates allowed to remain at room temp for at least 5 minutes. Then, the well contents were mixed by 50 μl trituration, and 20 μl of each well was mixed with 20 μl of Renilla-glo reagent in a solid-white 384-well plate. Ten minutes later, luminescence was measured using a Tecan machine with 500 msec read time. The luciferase activity was expressed as mean relative light unit (RLU)±SD.
# Oligonucleotides containing either the full length of sequences of the stem from the stem-loop structure and theophylline aptamer or the truncated sequences of the stem, were synthesized (IDT) and cloned into pRL-SV40 vector using the Gibson Assembly Cloning Kit (NEB). Construct sequences were verified by DNA sequencing (Genewiz).
# Transfection and aptamer ligand treatment: HEK 293 cells were transfected as described in Example 1. Four hours after transfection, the media was aspirated, and new media with or without 3 mM theophylline was added. A Renilla luciferase assay was performed 20 to 24 hours after theophylline treatment as described in Example 1. The induction fold was expressed as the quotient of luciferase activity obtained in the presence of aptamer ligand divided by the value obtained in the absence of the aptamer ligand.
# Oligos containing 4 copies of the U1_theo_8_1 sequence in tandem were synthesized (IDT) and cloned using Gibson strategy and cloning kit (NEB). HEK 293 cells were transfected and Renilla luciferase assay was performed as described in Example 4.
molecule,measurement,setting,value
B1,fold increase of luciferase activity upon guanine treatment,[1]; human beta globin polyA sequence (pFLuc_HBGPA),2.1 fold
B2,induction of luciferase activity upon guanine treatment (in words),"[1]; guanine vs untreated, human beta globin polyA sequence",didn't induce luciferase activity
B3,fold increase of luciferase activity upon guanine treatment,[1]; SV40 early poly(A) signal,1.7 fold
B4,fold increase of luciferase activity upon guanine treatment,[1]; SV40 early poly(A) signal,2.0 fold
B5,maximal induction fold of luciferase activity,[2]; 6 mM theophylline,4.3 fold
same,luciferase activity relative to 87-9 SL control vector,"[2]; upon theophylline treatment, maximal at 6 mM",40%
same,reduction of basal level expression compared to single copy of U1_theo_8_1,[3]; no theophylline,83%
same,change of luciferase activity after theophylline treatment (in words),[3]; with vs without theophylline,increased the luciferase activity in a dose-dependent manner
B6,induction fold of luciferase activity (theophylline treated / untreated),"[3]; 3 mM theophylline, 20 to 24 hours",1.8 fold
B7,fold increase of luciferase activity upon guanine treatment,[1]; SV40 early poly(A) signal,2.4 fold
